How the values were obtained:
MS2 coat protein [1] = assay: apparent KD of MS2 coat protein, switch ON state; designed switch direction (-1 OFF switch, 1 ON switch): -1; higher = weaker reporter binding; conditions: FMN input: 0 or 200 uM; Eterna round: R93 (includes R88 designs)
Outline: (§1)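 The buffer was 100 mM Tris-HCl pH 7.5 with 80 mM KCl and 4 mM MgCl2, used without or with constant ligand. In it, RNA switches transcribed on-chip from Illumina sequencing clusters were titrated with SNAP-549-labelled MS2 coat protein in twofold steps from 0.7 or 1.5 nM to 3 µM. Apparent KD for each design is the median of its normalised cluster binding-curve fits.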

MS2 coat protein [2] = assay: apparent KD of MS2 coat protein, switch OFF state (with FMN for OFF switches, without FMN for ON switches); designed switch direction (-1 OFF switch, 1 ON switch): -1; higher = weaker reporter binding; conditions: FMN input: 0 or 200 uM; Eterna round: R93 (includes R88 designs)
Outline: as §1

## AAAAAGUCAGGAUAUAUGCGAAAAAUAAAAAAAAUAAAAACAUAGAAGGGACAUGAGGAUCACCCAUGUUAAAA [Ex 4 May 17]
MS2 coat protein [1]
  apparent KD of MS2 coat protein: 44.7 nM
MS2 coat protein [2]
  apparent KD of MS2 coat protein: 29.3 nM

## AGCAUGUGAGGAUAUGCGGACUCCAAUAAAUCUGGAGUCCAGUAGAAGGCACAUGAGGAUCACCCAUGUGAUAA [Soenaesma]
MS2 coat protein [1]
  apparent KD of MS2 coat protein: 102 nM
MS2 coat protein [2]
  apparent KD of MS2 coat protein: 117 nM

## AAAAACAGAGGAUAUACAUGAGGAUCACCCAUGUAAAAAUGUAGAAGGCUGAAAAAAAAAAGAAGGAAAAAAAA [Meechl Ex3 R2 m0]
MS2 coat protein [1]
  apparent KD of MS2 coat protein: 21.6 nM
MS2 coat protein [2]
  apparent KD of MS2 coat protein: 23.2 nM

## AAACCACAUGAGGAUCACCCAUGUGAGGAUAUGAACGAAAUAAAAUAAAAAAUAAAGUUCAGAAGGCACAAAAA [Mat - Exclusion 1 - Eli mod - D15]
MS2 coat protein [1]
  apparent KD of MS2 coat protein: 17.6 nM
MS2 coat protein [2]
  apparent KD of MS2 coat protein: 22.9 nM

## CAGUGACAUGAGGAUCACCCAUGUUAGGAUAUGCGUGUUAGAAAAAAAAAGUUAAUAAGCAGAAGGAACAGUGG [JR_Exc001_Sub311]
MS2 coat protein [1]
  apparent KD of MS2 coat protein: 40.8 nM
MS2 coat protein [2]
  apparent KD of MS2 coat protein: 61.6 nM

## AAAAAACAUGAGGAUCACCCAUGUCAGGAUAUCAUAAAAAAAAAAAAAAAAAAAAAAGUGAGAAGGGACAAAAA [exclusion1-cac1]
MS2 coat protein [1]
  apparent KD of MS2 coat protein: 42.9 nM
MS2 coat protein [2]
  apparent KD of MS2 coat protein: 32.7 nM

## AAUAGUGAAGGAUAUACAGGAGAAGAAAGAUAAAAGAAAGAACAUGAGGAUCACCCAUGUAGAAGGUCAGAAGU [JR_Exc002_Sub1229]
MS2 coat protein [1]
  apparent KD of MS2 coat protein: 27.1 nM
MS2 coat protein [2]
  apparent KD of MS2 coat protein: 19.9 nM

## AGAAAACGAGGAUAUGCAAGGGAAGAAAGAAGAGAGAAAAAACAUGAGGAUCACCCAUGUAGAAGGUGUAAAAA [JR_Exc002_Sub1714]
MS2 coat protein [1]
  apparent KD of MS2 coat protein: 57.5 nM
MS2 coat protein [2]
  apparent KD of MS2 coat protein: 37.1 nM

## AAUAAACAUGAGGAUCACCCAUGUGAGGAUAUACAGAUUAUAAGAAAAAAAAAAAAAAGUAGAAGGCACAUAUA [Default title]
MS2 coat protein [1]
  apparent KD of MS2 coat protein: 17.6 nM
MS2 coat protein [2]
  apparent KD of MS2 coat protein: 45.9 nM

## AGUUUGUCAGGAUAUGCGUGAAGAAUAAAACAAAUAACAACGCAGAAGGGACAUGAGGAUCACCCAUGUAAACA [May 54]
MS2 coat protein [1]
  apparent KD of MS2 coat protein: 51.3 nM
MS2 coat protein [2]
  apparent KD of MS2 coat protein: 58.1 nM

## AAAAAGCGAGGAUAUACAAAAGAGCGAAAGCUCAAAAGGAAACAUGAGGAUCACCCAUGUAGAAGGCGCAAGAA [John Whine]
MS2 coat protein [1]
  apparent KD of MS2 coat protein: 23.1 nM
MS2 coat protein [2]
  apparent KD of MS2 coat protein: 20.1 nM

## AAAAAAGGAGGAUAUACGUACAUGUCAAAAGACGUGAAGGGACAUGAGGAUCACCCAUGUAGAAGGUUUAAAAA [JL Wide Open 31]
MS2 coat protein [1]
  apparent KD of MS2 coat protein: 49.1 nM
MS2 coat protein [2]
  apparent KD of MS2 coat protein: 18.3 nM

## AAAAAAGCAGGAUAUACGUACAUGUCAAAAGACGUGAAGGGACAUGAGGAUCACCCAUGUAGAAGGGUUAAGAA [JL Stem Breaker 17]
MS2 coat protein [1]
  apparent KD of MS2 coat protein: 220 nM
MS2 coat protein [2]
  apparent KD of MS2 coat protein: 49.4 nM

## CAGUACUGAGGAUAUACAUGAGGAUCACCCAUGUAUCCUAGCUAGGAAACUAGCAAAUGUAGAAGGCAGUACUG [Ex3: 818]
MS2 coat protein [1]
  apparent KD of MS2 coat protein: 47.6 nM
MS2 coat protein [2]
  apparent KD of MS2 coat protein: 503 nM

## AGUGAGUGAGGAUAUCACUGAACAACAAAACAAAUAACGAGUGAGAAGGCACAUGAGGAUCACCCAUGUACACA [May 67]
MS2 coat protein [1]
  apparent KD of MS2 coat protein: 23.4 nM
MS2 coat protein [2]
  apparent KD of MS2 coat protein: 19.2 nM

## AAAAAACAUGAGGAUCACCCAUGUGAGGAUAUCGGAAACAAAAAAAACAAAAACAAAACGAGAAGGCACAAAAA [Amethyst 32]
MS2 coat protein [1]
  apparent KD of MS2 coat protein: 72.4 nM
MS2 coat protein [2]
  apparent KD of MS2 coat protein: 26.6 nM

## AAAACGGUAGGAUAUACGAUUUGGAACUAGACCGAGGAACCACAUGAGGAUCACCCAUGUAGAAGGGCCAAAAA [EX2 Malc#17]
MS2 coat protein [1]
  apparent KD of MS2 coat protein: 15.6 nM
MS2 coat protein [2]
  apparent KD of MS2 coat protein: 10.7 nM

## AGAAAGCUAGGAUAUACCUGGAGGGUUCUAAAUGAAAUAAAACAUGAGGAUCACCCAUGUAGAAGGAGCCCGAA [Sobire]
MS2 coat protein [1]
  apparent KD of MS2 coat protein: 18.3 nM
MS2 coat protein [2]
  apparent KD of MS2 coat protein: 16.6 nM

## AACAGUACAGGAUAUACAUGAGGAUCACCCAUGUCACAACAAAGCAGCGCAACACAAAGUAGAAGGGUAAUGGA [Ruby 15]
MS2 coat protein [1]
  apparent KD of MS2 coat protein: 34.6 nM
MS2 coat protein [2]
  apparent KD of MS2 coat protein: 40.4 nM

## AACAGUACAGGAUAUACAUGAGGAUCACCCAUGUGAGAAUUAAGCAGCGUAACACAAAGUAGAAGGGUAAUGGA [Ruby 19]
MS2 coat protein [1]
  apparent KD of MS2 coat protein: 39.9 nM
MS2 coat protein [2]
  apparent KD of MS2 coat protein: 43.9 nM

## ACAGCUGAAGGAUAUACUUGGGAAAAAAAAAAAAAAAAAAAACAUGAGGAUCACCCAUGUAGAAGGUCAGCUGA [Brourd - Exclusion 2 - Sub 1]
MS2 coat protein [1]
  apparent KD of MS2 coat protein: 82.2 nM
MS2 coat protein [2]
  apparent KD of MS2 coat protein: 43.5 nM

## CUCAUGUGAGGAUAUCAGUAGUAAAAAAAUAAAAUUACUACUGAGAAGGCACAUGAGGAUCACCCAUGUGUCUU [EX4 331: Super Stable 31]
MS2 coat protein [1]
  apparent KD of MS2 coat protein: 45.8 nM
MS2 coat protein [2]
  apparent KD of MS2 coat protein: 27.2 nM

## UUAGAACAUGAGGAUCACCCAUGUGAGGAUAUGCAAUACUAGCGACAAGAUCAUUAUAGCAGAAGGCACGUAGU [JR_EXc001_Sub806]
MS2 coat protein [1]
  apparent KD of MS2 coat protein: 30.1 nM
MS2 coat protein [2]
  apparent KD of MS2 coat protein: 40 nM

## AAAUAGCAAGGAUAUACAUGAGGAUCACCCAUGUAAGGAUGAUACGUAAUAGAAGAAAGUAGAAGGUGCAAAUA [Ex 3 Tesla 6]
MS2 coat protein [1]
  apparent KD of MS2 coat protein: 42.8 nM
MS2 coat protein [2]
  apparent KD of MS2 coat protein: 148 nM

## AACAGUACAGGAUAUACAUGAGGAUCACCCAUGUGAACUUCAAGUGCCGUAGCACGAAGUAGAAGGGUACUGGA
MS2 coat protein [1]
  apparent KD of MS2 coat protein: 63.4 nM
MS2 coat protein [2]
  apparent KD of MS2 coat protein: 497 nM

## AAAACACAUGAGGAUCACCCAUGUGAGGAUAUGAACGAAAAUAAAUAAAAAUAAAAGUUCAGAAGGCACAAAAA [66%, Wbt, 11]
MS2 coat protein [1]
  apparent KD of MS2 coat protein: 24.2 nM
MS2 coat protein [2]
  apparent KD of MS2 coat protein: 36.1 nM

## AUAAAGUCAGGAUAUGUAAAAAUAACGAAAGUUAUAAAUAAACAGAAGGGACAUGAGGAUCACCCAUGUAAAAU [Meechl MS2 Ex4]
MS2 coat protein [1]
  apparent KD of MS2 coat protein: 47 nM
MS2 coat protein [2]
  apparent KD of MS2 coat protein: 41.2 nM

## GAAAAGUCAGGAUAUGCAGAUAAAAAAACGAAAAAAAAUCUGCAGAAGGGACAUGAGGAUCACCCAUGUAAAAG [Mat - Exclusion 4 - Mayanna - D110]
MS2 coat protein [1]
  apparent KD of MS2 coat protein: 66.3 nM
MS2 coat protein [2]
  apparent KD of MS2 coat protein: 54.2 nM

## AAAAGCUCAGGAUAUACGGUCUGUUGUUGAGAAAUAAAAAAACAUGAGGAUCACCCAUGUAGAAGGGAGCGAAA [Exclusion2-cac3]
MS2 coat protein [1]
  apparent KD of MS2 coat protein: 44.4 nM
MS2 coat protein [2]
  apparent KD of MS2 coat protein: 111 nM

## AAGAAGUGAGGAUAUCGAAGACAGACGAAAAGUCUGUCAAACGAGAAGGCACAUGAGGAUCACCCAUGUGGGAG [Mat - Exaclusion 4 - Eli mod - D74]
MS2 coat protein [1]
  apparent KD of MS2 coat protein: 114 nM
MS2 coat protein [2]
  apparent KD of MS2 coat protein: 277 nM

## GCUUGCCAAGGAUAUACAUGAGGAUCACCCAUGUGAGAGAAAAAAGUGAGAAAGAAAAGUAGAAGGUGGUGAGG [salish99-ex3-110]
MS2 coat protein [1]
  apparent KD of MS2 coat protein: 26.4 nM
MS2 coat protein [2]
  apparent KD of MS2 coat protein: 120 nM

## AAGUAGCUAGGAUAUACAUAGAUACAGAUUCAUGUAGAACUACAUGAGGAUCACCCAUGUAGAAGGAGCUAAUA [AJ 35]
MS2 coat protein [1]
  apparent KD of MS2 coat protein: 31.4 nM
MS2 coat protein [2]
  apparent KD of MS2 coat protein: 60.3 nM

## AGCUAGGUAGGAUAUACGUAAAUGUCGAAAGACGUAUUGGGACAUGAGGAUCACCCAUGUAGAAGGAUCUAGCA [it's a mod mod mod world 3]
MS2 coat protein [1]
  apparent KD of MS2 coat protein: 38.8 nM
MS2 coat protein [2]
  apparent KD of MS2 coat protein: 178 nM

## AAAAAGUGAGGAUAUGUCAAAAGUCACAAAAGUGACAAAAGACAGAAGGCACAUGAGGAUCACCCAUGUGGAAA [Mod of Eli - Late G + early G segment 2]
MS2 coat protein [1]
  apparent KD of MS2 coat protein: 32.1 nM
MS2 coat protein [2]
  apparent KD of MS2 coat protein: 28.6 nM

## CUUAUGUGAGGAUAUGUACAGAAAAAACUGGGUGUAACUGUACAGAAGGCACAUGAGGAUCACCCAUGUAAAAA [EX4 387: S S Pseudoknot 12]
MS2 coat protein [1]
  apparent KD of MS2 coat protein: 36.4 nM
MS2 coat protein [2]
  apparent KD of MS2 coat protein: 31 nM
